Test results from patent publication US20230068663A1 (University of Texas, published 2023).

Assays:
LILRB2-His antigen [1] = molecular target: T1, LILRB2-His antigen (UniProt Q8N423 22-460, limits assumed); experiment: indirect ELISA, coated LILRB2-His
T1 construct: Coated on ELISA plates; also used for phage panning; also called LILRB2 antigen; not shown: His tag
Experimental: ELISA binding EC of LILRB2 antibodies. The ELISA binding EC₅₀ of these 24 antibodies were measured by indirect ELISA. […] After incubation, HRP-conjugated goat anti-human Fc secondary antibody was incubated with the plates. The TMB substrate was added for color development and measurement of absorbance at 450 nm.

LAIR1 on reporter cells [2] = molecular target: T2, LAIR1 on reporter cells (UniProt Q6GTX8 22-165, limits assumed); experiment: flow cytometry, reporter cells [cont'd]
T2 sequence (looked up): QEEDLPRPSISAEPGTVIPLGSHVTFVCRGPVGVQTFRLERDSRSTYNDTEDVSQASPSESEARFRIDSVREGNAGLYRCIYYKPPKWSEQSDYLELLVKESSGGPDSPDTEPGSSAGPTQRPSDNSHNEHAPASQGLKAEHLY

[3] = molecular target: T3, LILRB2 chimeric receptor on LILRB2 reporter cells (extracellular domain of LILRB2 fused with … (UniProt Q8N423 22-460)); experiment: flow cytometry, LILRB2 reporter cells
T3 construct: extracellular domain;domain: transmembrane/intracellular domains; associates with DAP12; also called LILRB2-expressing reporter cells
Description: (§1) FIGS. 1A-C. Screening specific monoclonal antibodies for LILRB2. […] Binding of monoclonal antibodies was screened using flow cytometer on LILRB2 reporter cells. Bound antibodies were detected with Allophycocyanin (APC)-labeled goat anti-human IgG secondary antibody. (FIG. 1B) Quantification of binding ability of monoclonal antibodies to LILRB2 reporter cells.
(§2) Screening specific monoclonal antibodies for LILRB2. The inventors employed a stable reporter cell system to detect the binding ability of selected monoclonal antibodies to LILRB2. In this chimeric receptor reporter system, the extracellular domain (ECD) of LILRB2 is fused with transmembrane/intracellular domains of PILRb that associates with the adaptor protein DAP12 containing an immunoreceptor tyrosine-based activation motif. 27 monoclonal antibodies were screened. The LILRB2 reporter cells were incubated with selected monoclonal antibody, then labeled with (APC) goat anti-human IgG secondary antibody. […] The inventors generated LILRBAs and LILRBs reporters stably transduced with each receptor's extracellular domain (ECD).

LAIR1 on reporter cells [4] = molecular target: T2, LAIR1 on reporter cells; experiment: flow cytometry, reporter cells
Experimental: Binding of LILRB2 monoclonal antibodies was detected using flow cytometry on LILRAs, LILRBs or LAIR1-expressing reporter cells using a Allophycocyanin (APC)-labeled goat anti-human IgG Fc specific secondary antibody. Non: non-stained reporter cells. NEG: cells incubated only with secondary Ab. POS: cells incubated with commercial antibody conjugated with APC or AF647 for the respective LIL or LAIR-1 receptors. The number indicates mean fluorescence intensity (MFI) of APC or AF647.

[5] = molecular target: T4, LILRB2 (antigen in solution, Octet RED 96) (UniProt Q8N423 22-460, limits assumed); experiment: BLI (Octet RED 96), antibody on protein A biosensor, LILRB2 in solution
T4 construct: also called LILRB2 solution
Experimental: Affinity measurement of blocking antibodies. Affinities of the 5 blocking antibodies were measured on Octet RED 96 system.

[6] = molecular target: T5, full extracellular domain (ECD) of LILRB2 fused to Fc fragment of mouse IgG2a (human; mouse, UniProt Q8N423 22-460); experiment: ELISA, coated human LILRB2 ECD-mIgG2a Fc [panel A]
T5 construct: extracellular domain; also called B2-ECD; wildtype B2-ECD; not shown: Fc fragment of mouse IgG2a
Description: FIGS. 19A-B. ELISA binding measurement of antibodies to human and non-human primate (cynomolgus monkey, cyno) LILRB2 recombinantly produced in HEK293 cells. (FIG. 19A) ELISA binding to human LILRB2. (FIG. 19B) ELISA binding to cyno-LILRB2. The fusion proteins of the extracellular domain (ECD) of human LILRB2 or NHP-LILRB2 with Fe of mouse IgG2a were used to coat ELISA plates and antibodies were titrated in different concentrations as indicated in the graph.

LAIR1 on reporter cells [7] = molecular target: T2, LAIR1 on reporter cells; experiment: flow cytometry, reporter cells; remark: listed apart in the source
LILRB2-His antigen [8] = molecular target: T1, LILRB2-His antigen; experiment: ELISA titration on LILRB2 and LILRA1 antigens
[9] = molecular target: T3, LILRB2 chimeric receptor on LILRB2 …; experiment: flow cytometry on LILRB2 reporter cells, APC anti-human IgG
Description: as §1, §2

LILRA6 = molecular target: T6, LILRA6; experiment: flow cytometry, reporter cells [cont'd]
T6 construct: also called LILRA6 reporter cells

LILRA5 = molecular target: T7, LILRA5; experiment: flow cytometry, reporter cells [cont'd]
T7 construct: also called LILRA5 reporter cells
T7 sequence (chain, as listed by the source limits assumed): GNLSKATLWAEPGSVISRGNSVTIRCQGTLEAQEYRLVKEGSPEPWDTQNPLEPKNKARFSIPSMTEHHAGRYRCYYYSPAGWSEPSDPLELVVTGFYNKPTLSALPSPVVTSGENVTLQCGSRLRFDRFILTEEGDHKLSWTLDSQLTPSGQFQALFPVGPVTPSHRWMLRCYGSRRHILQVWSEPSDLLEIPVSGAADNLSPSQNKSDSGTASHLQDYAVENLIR

T6 sequence (chain, as listed by the source limits assumed): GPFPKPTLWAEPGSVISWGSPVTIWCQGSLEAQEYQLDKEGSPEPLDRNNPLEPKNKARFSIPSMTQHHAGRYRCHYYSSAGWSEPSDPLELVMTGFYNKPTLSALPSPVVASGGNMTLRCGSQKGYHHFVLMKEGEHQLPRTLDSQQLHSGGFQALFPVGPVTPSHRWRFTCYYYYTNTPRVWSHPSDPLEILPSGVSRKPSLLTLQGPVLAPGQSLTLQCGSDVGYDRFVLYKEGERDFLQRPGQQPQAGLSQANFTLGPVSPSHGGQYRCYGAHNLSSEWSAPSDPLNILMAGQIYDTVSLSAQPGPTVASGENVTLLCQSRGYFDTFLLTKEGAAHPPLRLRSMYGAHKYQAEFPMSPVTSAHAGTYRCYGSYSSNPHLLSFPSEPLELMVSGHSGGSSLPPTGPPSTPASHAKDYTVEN

B1: B2-25 (antibody, V domains shown)
VH: QVQLVESGGGLVKPGGSLRLSCAASGFTFSDHYMSWIRQAPGKGLEWVSYITTTGSTMSYADSVKGRFTISRDNSKNSLHLQLSSLRAEDTAVYYCARDSIHVDGAFDIWGQGTMVTVSS
VL: SYELTQPPSVSVAPGQTARITCGGNNIGSKSVHWYQQKPGQAPVLVVYDDSDRPSGIPERFSGSNSGNTATLTISRVEAGDEADYYCQVWDSSSDHWVFGGGTKLTVL
notes: also called B2-25_HC; B2-25_LC
EC50 (LILRB2-His antigen [1]): 1.73 nM | binding result (LAIR1 on reporter cells [2]): no binding | % of cells anti-hIgG APC+ [3]: 39.2%

B2: HCB2-10 (antibody, V domains shown)
VH: QVQLVESGGGLVQPGGSLRLSCAASGFTFSNYAMSWVRQAPGKGLEWVSAISGSSISTYYADSVKGRFTISRDNSKNTLYLQMNSLRAEDTAVYYCASSGFGSFDYWGQGTLVTVSS
VL: QPPSVSAAPRQRVTISCSGSSSNIGDNSVNWYQQLPGKAPKLLIYLDDLLPSGVSGRFSGSKSGTSASLVISGLQSEDEADYYCATWDDSLNGVVFGGGTKVTVL
notes: also called HCB2-10_HC; HCB2-10_LC
binding result (LAIR1 on reporter cells [4]): no binding | Kd [5]: 8.67 nM | koff [5]: 0.0061 s⁻¹ | kon [5]: 703000 M⁻¹ s⁻¹

B3: HCB2-24 (antibody, V domains shown)
VH: QMQLEQSGAEVKKPGSSVKVSCKASGGTFSSYAISWVRQAPGQGLEWMGGIIPIFGTANYAQKFQGRVTITADKSTSTAYMELSSLRSEDTAVYYCARAGGIHYYDSLDYWGQGTLVTVSS
VL: not shown
notes: also called HCB2-24_HC; HCB2-24_LC
binding result [6]: binds

B4: B2-8 (antibody, V domains shown)
VH: QVQLVQSGAEVKKPGSSVKVSCKASGGTFSSYAISWVRQAPGQGLEWMGGIIPIFGTANYAQKFQGRVTITADESTSTAYMELSSLRSEDTAVYYCARVAVADTFFDYWGQGTLVTVSS
VL: QPVLTQPASVSGSPGQSITISCTGTSSDVGGYNYVSWYQQHPGKAPKLMIYDVSNRPSGVSNRFSGSKSGNTASLTISGLQAEDEADYYCSSYTSSSTPYVFGTGTKVTVL
notes: also called B2-8_HC; B2-8_LC
binding result (LAIR1 on reporter cells [7]): no binding | EC50 (LILRB2-His antigen [1]): 0.557 nM | % of cells anti-hIgG APC+ [3]: 24.8%

B5: HCB2-18 (antibody, V domains shown)
VH: QVQLVQSGAEVKKPGSSVKVSCKASGGTFSSYAISWVRQAPGQGLEWMGGIIPIFGTANYAQKFQGRVTITADESTSTAYMELSSLRSEDTAVYYCARGGYQPLDYWGQGTLVIVSS
VL: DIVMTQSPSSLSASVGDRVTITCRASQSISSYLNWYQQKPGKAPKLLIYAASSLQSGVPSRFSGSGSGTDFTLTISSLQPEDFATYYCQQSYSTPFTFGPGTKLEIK
notes: also called HCB2-18_HC; HCB2-18_LC
binding result [6]: binds

B6: HCB2-15 (antibody, V domains shown)
VH: QVQMVESGGDLVQPGQSLRLSCVTSGFPFADYAMSWFRQAPGQRPEWIGYIKSKTRDGTTKYAESLRGRFTISRDDSKSIAYLQMNNLKREDTAVYYCALGGAAALWGPGTLVSVSS
VL: QPPSVSGAPGQRVTISCAGSSSNIGAGYGVHWYQHLPGTAPKLLIYGDNNRPSGVPYRFSGSKSGTSASLAITGLQAEDEADYFCQSYDSSLGVGVFGGGTKVTVL
notes: also called HCB2-15_HC; HCB2-15_LC
binding result [6]: binds

B7: B2-24 (antibody, V domains shown)
VH: QVQLVESGGGLVKPGGSLRLSCAASGFTFSDYYMSWIRQAPGKGLEWVSYISSSSSYTNYADSVKGRFTISRDNAKNSLYLQMNSLRAEDTAVYYCARVGDLDAFDIWGQGTMVTVSS
VL: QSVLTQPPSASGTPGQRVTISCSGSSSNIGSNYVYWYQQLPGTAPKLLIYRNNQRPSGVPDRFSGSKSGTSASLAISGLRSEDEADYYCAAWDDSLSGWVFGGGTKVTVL
notes: also called B2-24_HC; B2-24_LC
binding result (LAIR1 on reporter cells [7]): no binding | EC50 (LILRB2-His antigen [1]): 5.06 nM | % of cells anti-hIgG APC+ [3]: 13%

B8: B2-18 (antibody, V domains shown)
VH: QVQLVQSGAEVKKPGASVKVSCKASGYTFTRYGFSWVRQAPGQGLEWMGWISGYNGNTKYAQKFQGRVTMTTDTSTSTAYMELRSLTSNDTAVYYCARDRGSGYLEYWGPGTLVTVSS
VL: DVQMTQSPSSLSASVGERVTLTCRASQGIYSSLAWYQQKPGKAPKLLLYGTSQLERGVPSRFSGSGSGTDYTLTISSLQPEDSATYYCQQHYNLPITFGQGTRLEIK
notes: also called B2-18_HC; B2-18_LC
fold potency of binding to LILRB2 against binding to LILRA1 (LILRB2-His antigen [8]): > 100 fold | EC50 (LILRB2-His antigen [1]): 0.355 nM | percent of LILRB2 reporter cells labeled [9]: > 95% | binding result (LILRA6): no binding | binding result (LILRA5): no binding | binding result (LAIR1 on reporter cells [2]): no binding | % of cells anti-hIgG APC+ [3]: 75.6%

B9: HCB2-17 (antibody, V domains shown)
VH: QVQLVQSGAEVKKPGSSVKVSCKASGGTFSSYAISWVRQAPGQGLEWMGGIIPIFGTANYAQKFQGRVTITADESTSTAYMELSSLRSEDTAVYYCAISSGYYYNPFDYWGQGTLVTVSS
VL: not shown
notes: also called HCB2-17_HC; HCB2-17_LC
binding result [6]: binds

B10: HCB2-27 (antibody, V domains shown)
VH: QVQLVESGGGLVKPGGSLRLSCAASGFTFANAWMGWVRQAPGKGLQWVSHIKPSSSGGRTTDYDAPVKGRFTISRDDSNDTVYLQMNSLKTEDTGVYYCVTGRRVAKTFDFWGQGTTVSVSS
VL: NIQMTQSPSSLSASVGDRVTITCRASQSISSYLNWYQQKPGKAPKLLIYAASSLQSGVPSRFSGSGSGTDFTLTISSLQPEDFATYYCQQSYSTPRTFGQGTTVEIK
notes: also called HCB2-27_HC; HCB2-27_LC
binding result [6]: binds

B11: B2-10 (antibody, V domains shown)
VH: QVQLVQSGGGLVQPGGSLRLSCAASGFTFSSYAMSWVRQAPGKGLEWVSTINDSGGSTYYADSVKGRFTISRDNSKNTLYLQMNSLRAEDTAVYYCAKDHITIFGVAPFDYWGLGTLVTVSS
VL: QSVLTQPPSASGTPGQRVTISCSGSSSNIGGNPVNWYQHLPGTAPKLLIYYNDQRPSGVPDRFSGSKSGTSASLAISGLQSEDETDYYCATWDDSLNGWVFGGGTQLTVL
notes: also called B2-10_HC; B2-10_LC
fold potency of binding to LILRB2 against binding to LILRA1 (LILRB2-His antigen [8]): > 100 fold | EC50 (LILRB2-His antigen [1]): 0.575 nM | % of cells anti-hIgG APC+ [3]: 35.1%

B12: HCB2-5 (antibody, V domains shown)
VH: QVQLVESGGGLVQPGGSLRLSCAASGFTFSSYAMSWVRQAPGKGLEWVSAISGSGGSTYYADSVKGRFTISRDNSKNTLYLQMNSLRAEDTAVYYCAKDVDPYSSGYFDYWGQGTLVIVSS
VL: AIQMTQSPSSVSASVGDRVTITCRASQGIGSWLAWYQQKPGKAPKLLISVASSLQSGVPSRFSGSGSGTDFTLTISSLQPEDFATYYCQQANSFPLTFGGGTTVEIK
notes: also called FCB2-5; HCB2-5_HC
binding result (LAIR1 on reporter cells [4]): no binding | Kd [5]: 10.2 nM | koff [5]: 0.00324 s⁻¹ | kon [5]: 317000 M⁻¹ s⁻¹

B13: B2-12 (antibody, V domains shown)
VH: QVQLVQSGDEVKKAGASVRVSCKASGYTFPDNGISWVRQAPGHGLEWMGWINVDTGYTHYAQRVQDRVVMTTDTSTNTLHMTLRSLTTDDTAVYYCAREIEGVWTAWGQGTLVIVSS
VL: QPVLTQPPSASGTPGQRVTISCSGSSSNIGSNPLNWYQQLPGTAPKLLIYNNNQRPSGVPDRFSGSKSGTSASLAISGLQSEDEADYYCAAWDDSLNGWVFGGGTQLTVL
notes: also called B2-12_HC; B2-12_LC
fold potency of binding to LILRB2 against binding to LILRA1 (LILRB2-His antigen [8]): > 100 fold | EC50 (LILRB2-His antigen [1]): 0.444 nM | binding result (LILRA6): no binding | binding result (LILRA5): no binding | binding result (LAIR1 on reporter cells [2]): no binding | % of cells anti-hIgG APC+ [3]: 25.5%
